These are literature values, as cited in publication PMC4336166.

As usually defined, the Kd is the constant that tells how readily two partners part at equilibrium.

For this series, the target named is clathrin coat (Homo sapiens) (UniProt Q00610).
Sequence of UniProt Q00610 (Q00610 2-1675): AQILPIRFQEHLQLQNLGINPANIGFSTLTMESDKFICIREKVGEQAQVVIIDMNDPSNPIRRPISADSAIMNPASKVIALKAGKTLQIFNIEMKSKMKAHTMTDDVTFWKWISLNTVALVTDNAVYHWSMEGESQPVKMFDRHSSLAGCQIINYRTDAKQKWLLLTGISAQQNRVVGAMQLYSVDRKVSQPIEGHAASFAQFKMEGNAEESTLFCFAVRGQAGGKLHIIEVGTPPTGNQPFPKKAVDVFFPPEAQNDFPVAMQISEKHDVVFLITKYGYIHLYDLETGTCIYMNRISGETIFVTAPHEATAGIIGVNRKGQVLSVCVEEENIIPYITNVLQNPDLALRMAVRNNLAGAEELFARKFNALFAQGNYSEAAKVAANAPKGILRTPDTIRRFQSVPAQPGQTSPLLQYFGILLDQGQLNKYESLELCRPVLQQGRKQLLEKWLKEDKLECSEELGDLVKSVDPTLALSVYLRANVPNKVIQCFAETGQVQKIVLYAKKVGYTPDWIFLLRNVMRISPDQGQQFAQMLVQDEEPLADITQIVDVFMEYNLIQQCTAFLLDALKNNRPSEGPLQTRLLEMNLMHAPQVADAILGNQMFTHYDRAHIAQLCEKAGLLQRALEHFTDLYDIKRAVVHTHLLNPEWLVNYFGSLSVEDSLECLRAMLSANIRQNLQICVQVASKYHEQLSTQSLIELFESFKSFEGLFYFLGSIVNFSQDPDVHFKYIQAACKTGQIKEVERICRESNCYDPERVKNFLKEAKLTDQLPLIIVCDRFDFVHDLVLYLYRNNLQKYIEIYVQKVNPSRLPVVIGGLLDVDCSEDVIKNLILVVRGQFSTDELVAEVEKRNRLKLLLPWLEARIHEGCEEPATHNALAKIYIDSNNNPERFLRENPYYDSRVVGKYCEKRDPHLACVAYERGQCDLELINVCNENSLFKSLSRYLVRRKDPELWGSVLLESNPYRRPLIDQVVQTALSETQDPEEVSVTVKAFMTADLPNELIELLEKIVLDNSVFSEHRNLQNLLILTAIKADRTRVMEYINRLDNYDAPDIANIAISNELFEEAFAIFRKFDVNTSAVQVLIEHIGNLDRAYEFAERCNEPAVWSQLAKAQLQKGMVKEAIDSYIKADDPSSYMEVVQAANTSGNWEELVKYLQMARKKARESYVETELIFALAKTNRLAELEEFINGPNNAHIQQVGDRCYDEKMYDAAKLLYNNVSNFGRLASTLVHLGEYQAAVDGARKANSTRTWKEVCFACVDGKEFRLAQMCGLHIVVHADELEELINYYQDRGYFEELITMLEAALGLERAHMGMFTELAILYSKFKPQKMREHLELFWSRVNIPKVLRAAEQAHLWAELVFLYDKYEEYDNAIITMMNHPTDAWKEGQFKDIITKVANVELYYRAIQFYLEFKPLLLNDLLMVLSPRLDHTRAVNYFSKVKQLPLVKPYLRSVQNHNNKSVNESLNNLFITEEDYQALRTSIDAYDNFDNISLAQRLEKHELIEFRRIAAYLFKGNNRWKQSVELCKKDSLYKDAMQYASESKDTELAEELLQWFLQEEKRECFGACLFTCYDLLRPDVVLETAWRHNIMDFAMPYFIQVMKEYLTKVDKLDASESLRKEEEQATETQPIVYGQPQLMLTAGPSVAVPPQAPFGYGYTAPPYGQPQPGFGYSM

For the substance epsin CLAP domain (from UniProt Q9Y6I3), the Kd is 123 µM.
